Data set [1] addresses IKZF1 (Q13422) expressed in-frame upstream to the N-CAT fragment (UniProt Q13422).
The target of data set [2] is CK1a (P48729) expressed in-frame upstream to the N-CAT fragment (UniProt P48729).
Data set [3] concerns the target GSPT1 (P15170) expressed in-frame upstream to the N-CAT fragment (UniProt P15170).

The text below walks through data of patent publication US20210356467.

Chain of IKZF1 (Q13422) expressed in-frame upstream to the N-CAT fragment (Q13422 other isoform, or with tags, fused parts or gaps): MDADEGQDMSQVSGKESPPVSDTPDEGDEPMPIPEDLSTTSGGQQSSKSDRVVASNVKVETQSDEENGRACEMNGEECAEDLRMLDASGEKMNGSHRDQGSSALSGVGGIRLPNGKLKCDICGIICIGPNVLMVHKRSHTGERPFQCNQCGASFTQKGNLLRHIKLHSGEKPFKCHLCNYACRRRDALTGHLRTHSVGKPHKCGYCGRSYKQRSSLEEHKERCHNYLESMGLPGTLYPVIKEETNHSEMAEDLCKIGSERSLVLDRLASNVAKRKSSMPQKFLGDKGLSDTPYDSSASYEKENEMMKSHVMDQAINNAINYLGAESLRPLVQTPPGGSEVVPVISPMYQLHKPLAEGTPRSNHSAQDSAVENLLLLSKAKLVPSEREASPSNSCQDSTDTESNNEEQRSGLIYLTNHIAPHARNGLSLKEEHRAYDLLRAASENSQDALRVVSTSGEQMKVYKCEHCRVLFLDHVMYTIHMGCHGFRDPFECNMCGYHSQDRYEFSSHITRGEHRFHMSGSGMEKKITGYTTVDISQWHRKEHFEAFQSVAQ
Chain of Cereblon-E2 (Ubc4) fusion (chain, as listed by the source): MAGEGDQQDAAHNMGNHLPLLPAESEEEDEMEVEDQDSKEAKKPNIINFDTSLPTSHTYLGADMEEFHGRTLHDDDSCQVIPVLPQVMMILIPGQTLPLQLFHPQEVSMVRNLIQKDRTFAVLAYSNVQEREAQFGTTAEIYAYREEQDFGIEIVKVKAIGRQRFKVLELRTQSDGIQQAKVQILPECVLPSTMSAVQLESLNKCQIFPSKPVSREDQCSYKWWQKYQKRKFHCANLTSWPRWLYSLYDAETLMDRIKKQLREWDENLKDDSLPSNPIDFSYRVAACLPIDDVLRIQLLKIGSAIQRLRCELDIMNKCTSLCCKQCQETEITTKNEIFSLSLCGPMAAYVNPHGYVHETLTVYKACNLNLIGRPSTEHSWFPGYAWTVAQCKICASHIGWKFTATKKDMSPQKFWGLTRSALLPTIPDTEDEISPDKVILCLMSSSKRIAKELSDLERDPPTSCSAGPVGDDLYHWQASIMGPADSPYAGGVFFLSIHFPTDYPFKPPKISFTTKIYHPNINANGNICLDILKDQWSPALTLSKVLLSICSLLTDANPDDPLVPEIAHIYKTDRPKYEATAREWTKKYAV
Chain of CK1a (P48729) expressed in-frame upstream to the N-CAT fragment (P48729 other isoform, or with tags, fused parts or gaps): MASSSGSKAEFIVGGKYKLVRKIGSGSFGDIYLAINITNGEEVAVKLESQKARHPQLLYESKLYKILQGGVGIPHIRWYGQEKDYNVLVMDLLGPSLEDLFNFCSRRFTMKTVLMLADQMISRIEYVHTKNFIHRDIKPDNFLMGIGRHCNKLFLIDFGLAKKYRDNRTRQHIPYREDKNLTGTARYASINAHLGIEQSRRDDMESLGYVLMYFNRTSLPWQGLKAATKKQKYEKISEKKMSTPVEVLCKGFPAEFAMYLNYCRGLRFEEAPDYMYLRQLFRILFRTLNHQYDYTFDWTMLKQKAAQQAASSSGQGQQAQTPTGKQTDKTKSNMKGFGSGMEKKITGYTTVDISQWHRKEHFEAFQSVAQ
Chain of GSPT1 (P15170) expressed in-frame upstream to the N-CAT fragment (P15170 other isoform, or with tags, fused parts or gaps): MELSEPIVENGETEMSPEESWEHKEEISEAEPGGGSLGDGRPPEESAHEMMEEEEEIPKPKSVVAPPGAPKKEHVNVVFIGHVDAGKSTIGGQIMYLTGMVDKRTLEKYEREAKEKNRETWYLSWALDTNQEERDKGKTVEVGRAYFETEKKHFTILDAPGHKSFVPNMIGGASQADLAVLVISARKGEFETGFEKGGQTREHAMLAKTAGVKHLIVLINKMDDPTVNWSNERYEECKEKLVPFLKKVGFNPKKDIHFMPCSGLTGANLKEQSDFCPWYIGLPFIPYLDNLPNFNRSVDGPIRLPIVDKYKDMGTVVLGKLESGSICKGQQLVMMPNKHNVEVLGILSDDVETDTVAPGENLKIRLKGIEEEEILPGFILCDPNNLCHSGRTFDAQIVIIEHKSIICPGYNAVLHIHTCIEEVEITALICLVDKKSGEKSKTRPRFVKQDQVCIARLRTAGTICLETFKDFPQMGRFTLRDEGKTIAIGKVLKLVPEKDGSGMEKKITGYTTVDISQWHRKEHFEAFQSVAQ

As for Cereblon-E2 (Ubc4) fusion, in data set [1], the “dose response of E. coli growth (OD600) to TLD and LLD, split-CAT selection” value is “the selection system maintains this well-known optimum characteristic response to TLD and LLD”; the “growth of E. coli (OD600) under chloramphenicol, split-CAT ubiquitylation selection, with Lenalidomide (LLD)” value was “Thalidomide and Lenalidomide (TLD/LLD) significantly promoted the growth of E. coli that express IKZF1”; the “growth of E. coli (OD600) under chloramphenicol, split-CAT ubiquitylation selection, with Thalidomide (TLD)” value is “Thalidomide and Lenalidomide (TLD/LLD) significantly promoted the growth of E. coli that express IKZF1”. Also, in data set [2], the “growth of E. coli (OD600) under chloramphenicol, split-CAT ubiquitylation selection, with Lenalidomide (LLD)” value is “Thalidomide and Lenalidomide (TLD/LLD) significantly promoted the growth of E. coli that express CK1a”; the “growth of E. coli (OD600) under chloramphenicol, split-CAT ubiquitylation selection, with Thalidomide (TLD)” value was “Thalidomide and Lenalidomide (TLD/LLD) significantly promoted the growth of E. coli that express CK1a”. In addition, in data set [3], the “growth of E. coli (OD600) under chloramphenicol, split-CAT ubiquitylation selection, with CC-885” value is given as “CC-885 significantly promoted the growth of E. coli that express GSPT1”.
